Measurements as given in PMC2756588.

Target: T1, Abp1, P15891
T1 sequence (P15891 535-592, looked up): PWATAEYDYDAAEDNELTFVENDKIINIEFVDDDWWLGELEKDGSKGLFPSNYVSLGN
Assay: SPOT array
Conditions: median of control spots 935

Row | SPOT intensity | Binder
1 | 151 | NPNRRAPRRPLSTQH
2 | 55 | NFLRLLIGLPSQNEL
3 | 53 | NHSRSLFSLPGNQQS

Target: T2, Bbc1, P47068
T2 sequence (P47068 1-78, looked up): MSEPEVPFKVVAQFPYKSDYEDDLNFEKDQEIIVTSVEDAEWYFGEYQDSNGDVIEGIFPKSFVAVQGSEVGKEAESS
Assay: SPOT array
Conditions: median of control spots 796

Row | SPOT intensity | Binder
4 | 294 | NPNRRAPRRPLSTQH
5 | 156 | NFLRLLIGLPSQNEL
6 | 35 | NHSRSLFSLPGNQQS

Target: T3, Hof1, Q05080
T3 sequence (Q05080 590-669, looked up): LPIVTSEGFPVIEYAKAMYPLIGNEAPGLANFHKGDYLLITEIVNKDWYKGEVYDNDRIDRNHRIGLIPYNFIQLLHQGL
Assay: SPOT array
Conditions: median of control spots 4086

Row | SPOT intensity | Binder
7 | 70 | NPNRRAPRRPLSTQH
8 | 3 | NFLRLLIGLPSQNEL
9 | 364 | NHSRSLFSLPGNQQS

Target: Bem1-2, P29366
Assay: SPOT array
Conditions: median of control spots 4347

Sequence of Bem1-2, P29366 (P29366 139-227): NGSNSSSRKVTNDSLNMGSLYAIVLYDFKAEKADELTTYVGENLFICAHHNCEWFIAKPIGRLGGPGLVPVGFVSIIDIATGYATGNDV

Row | SPOT intensity | Binder
10 | 476 | NPNRRAPRRPLSTQH
11 | 0 | NFLRLLIGLPSQNEL
12 | 353 | NHSRSLFSLPGNQQS

Target: T4, Lsb1, P53281
T4 sequence (P53281 45-122, looked up): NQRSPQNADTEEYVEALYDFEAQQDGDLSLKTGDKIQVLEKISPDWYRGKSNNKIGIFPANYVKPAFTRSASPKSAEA
Assay: SPOT array
Conditions: median of control spots 388

Row | SPOT intensity | Binder
13 | 52 | NPNRRAPRRPLSTQH
14 | 2 | NFLRLLIGLPSQNEL
15 | 46 | NHSRSLFSLPGNQQS

Target: T5, Fus1, P11710
T5 sequence (P11710 432-512, looked up): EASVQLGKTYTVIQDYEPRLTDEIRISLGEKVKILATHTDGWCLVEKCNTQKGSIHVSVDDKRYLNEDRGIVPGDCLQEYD
Assay: SPOT array
Conditions: median of control spots 1200

Row | SPOT intensity | Binder
16 | 59 | NPNRRAPRRPLSTQH
17 | 243 | NFLRLLIGLPSQNEL
18 | 653 | NHSRSLFSLPGNQQS

Target: T6, Pin3, Q06449
T6 sequence (Q06449 53-122, looked up): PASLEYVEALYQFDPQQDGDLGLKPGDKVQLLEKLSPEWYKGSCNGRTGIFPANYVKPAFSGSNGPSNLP
Assay: SPOT array
Conditions: median of control spots 2171

Row | SPOT intensity | Binder
19 | 4 | NPNRRAPRRPLSTQH
20 | 15 | NFLRLLIGLPSQNEL
21 | 16 | NHSRSLFSLPGNQQS

Target: T7, Pex13, P80667
T7 sequence (P80667 295-386, looked up): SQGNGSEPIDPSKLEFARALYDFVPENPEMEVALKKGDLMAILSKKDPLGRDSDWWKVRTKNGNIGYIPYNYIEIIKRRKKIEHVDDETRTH
Assay: SPOT array
Conditions: median of control spots 1341

Row | SPOT intensity | Binder
22 | 27 | NPNRRAPRRPLSTQH
23 | 47 | NFLRLLIGLPSQNEL
24 | 36 | NHSRSLFSLPGNQQS

Target: T8, Bzz1-2, P38822
T8 sequence (P38822 568-633, looked up): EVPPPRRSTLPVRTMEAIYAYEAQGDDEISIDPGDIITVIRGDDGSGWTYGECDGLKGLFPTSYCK
Assay: SPOT array
Conditions: median of control spots 4538

Row | SPOT intensity | Binder
25 | 56 | NPNRRAPRRPLSTQH
26 | 0 | NFLRLLIGLPSQNEL
27 | 19 | NHSRSLFSLPGNQQS

Target: Sho1, P40073
Assay: SPOT array
Conditions: median of control spots 1148

Sequence of Sho1, P40073 (P40073 287-367): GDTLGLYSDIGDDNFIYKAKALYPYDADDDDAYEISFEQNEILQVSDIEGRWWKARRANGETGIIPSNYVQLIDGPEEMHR

Row | SPOT intensity | Binder
28 | 267 | NPNRRAPRRPLSTQH
29 | 93 | NFLRLLIGLPSQNEL
30 | 141 | NHSRSLFSLPGNQQS

Target: T9, Lsb4, P32793
T9 sequence (P32793 402-468, looked up): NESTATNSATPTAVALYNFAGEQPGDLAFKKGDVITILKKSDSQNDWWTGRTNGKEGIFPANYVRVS
Assay: SPOT array
Conditions: median of control spots 397

Row | SPOT intensity | Binder
31 | 18 | NPNRRAPRRPLSTQH
32 | 0 | NFLRLLIGLPSQNEL
33 | 0 | NHSRSLFSLPGNQQS

Target: T10, Cyk3, Q07533
T10 sequence (Q07533 1-83, looked up): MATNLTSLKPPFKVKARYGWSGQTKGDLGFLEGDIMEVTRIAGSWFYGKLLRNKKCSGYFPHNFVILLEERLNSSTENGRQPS
Assay: SPOT array
Conditions: median of control spots 1451

Row | SPOT intensity | Binder
34 | 3 | NPNRRAPRRPLSTQH
35 | 9 | NFLRLLIGLPSQNEL
36 | 0 | NHSRSLFSLPGNQQS

Target: T11, Bud14, P27637
T11 sequence (P27637 247-328, looked up): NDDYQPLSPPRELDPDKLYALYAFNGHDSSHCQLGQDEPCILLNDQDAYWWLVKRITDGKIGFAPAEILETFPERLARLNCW
Assay: SPOT array
Conditions: median of control spots 956

Row | SPOT intensity | Binder
37 | 17 | NPNRRAPRRPLSTQH
38 | 22 | NFLRLLIGLPSQNEL
39 | 7 | NHSRSLFSLPGNQQS

Target: Rvs167, P39743
Assay: SPOT array
Conditions: median of control spots 2707

Sequence of Rvs167, P39743 (P39743 419-482): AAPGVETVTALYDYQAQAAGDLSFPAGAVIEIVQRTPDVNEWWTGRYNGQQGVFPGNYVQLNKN

Row | SPOT intensity | Binder
40 | 0 | NPNRRAPRRPLSTQH
41 | 0 | NFLRLLIGLPSQNEL
42 | 0 | NHSRSLFSLPGNQQS

Target: T12, Myo5, Q04439
T12 sequence (Q04439 1072-1160, looked up): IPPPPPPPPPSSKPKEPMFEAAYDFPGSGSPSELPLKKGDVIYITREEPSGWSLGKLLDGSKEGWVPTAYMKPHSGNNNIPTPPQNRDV
Assay: SPOT array
Conditions: median of control spots 471

Row | SPOT intensity | Binder
43 | 0 | NPNRRAPRRPLSTQH
44 | 0 | NFLRLLIGLPSQNEL
45 | 1 | NHSRSLFSLPGNQQS

Target: T13, Nbp2, Q12163
T13 sequence (Q12163 103-180, looked up): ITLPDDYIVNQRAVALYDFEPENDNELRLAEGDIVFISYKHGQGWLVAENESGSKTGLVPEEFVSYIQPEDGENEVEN
Assay: SPOT array
Conditions: median of control spots 357

Row | SPOT intensity | Binder
46 | 626 | NPNRRAPRRPLSTQH
47 | 84 | NFLRLLIGLPSQNEL
48 | 77 | NHSRSLFSLPGNQQS

Target: T14, Sla1-3, P32790
T14 sequence (P32790 344-424, looked up): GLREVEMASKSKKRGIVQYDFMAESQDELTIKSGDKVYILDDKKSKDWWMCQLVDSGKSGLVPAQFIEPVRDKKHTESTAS
Assay: SPOT array
Conditions: median of control spots 5475

Row | SPOT intensity | Binder
49 | 607 | NPNRRAPRRPLSTQH
50 | 0 | NFLRLLIGLPSQNEL
51 | 124 | NHSRSLFSLPGNQQS

Target: Myo3, P36006
Assay: SPOT array
Conditions: median of control spots 468

Row | SPOT intensity | Binder
52 | 46 | NPNRRAPRRPLSTQH
53 | 10 | NFLRLLIGLPSQNEL
54 | 13 | NHSRSLFSLPGNQQS

Target: T15, Boi2, P39969
T15 sequence (P39969 32-116, looked up): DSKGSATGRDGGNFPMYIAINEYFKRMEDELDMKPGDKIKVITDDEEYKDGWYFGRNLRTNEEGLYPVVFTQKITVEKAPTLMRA
Assay: SPOT array
Conditions: median of control spots 1161

Row | SPOT intensity | Binder
55 | 0 | NPNRRAPRRPLSTQH
56 | 6 | NFLRLLIGLPSQNEL
57 | 2 | NHSRSLFSLPGNQQS

Target: GST
Assay: SPOT array
Conditions: median of control spots 978

Row | SPOT intensity | Binder
58 | 0 | NPNRRAPRRPLSTQH
59 | 0 | NFLRLLIGLPSQNEL
60 | 2 | NHSRSLFSLPGNQQS

Target: T16, Cdc25, P04821
T16 sequence (P04821 50-136, looked up): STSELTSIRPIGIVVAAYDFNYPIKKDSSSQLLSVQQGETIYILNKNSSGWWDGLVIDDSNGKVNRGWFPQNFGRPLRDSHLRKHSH
Assay: SPOT array
Conditions: median of control spots 969

Row | SPOT intensity | Binder
61 | 221 | NPNRRAPRRPLSTQH
62 | 354 | NFLRLLIGLPSQNEL
63 | 333 | NHSRSLFSLPGNQQS

Target: Bem1-1, P29366
Assay: SPOT array
Conditions: median of control spots 4282

Sequence of Bem1-1, P29366 (P29366 55-141): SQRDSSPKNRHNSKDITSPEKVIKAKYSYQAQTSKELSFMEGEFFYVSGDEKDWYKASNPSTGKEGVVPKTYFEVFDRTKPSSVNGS

Row | SPOT intensity | Binder
64 | 3 | NPNRRAPRRPLSTQH
65 | 1 | NFLRLLIGLPSQNEL
66 | 3 | NHSRSLFSLPGNQQS

Target: T17, Bzz1-1, P38822
T17 sequence (P38822 478-572, looked up): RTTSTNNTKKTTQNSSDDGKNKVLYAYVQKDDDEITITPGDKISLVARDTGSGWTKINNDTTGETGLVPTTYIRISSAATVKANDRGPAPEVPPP
Assay: SPOT array
Conditions: median of control spots 4446

Row | SPOT intensity | Binder
67 | 0 | NPNRRAPRRPLSTQH
68 | 2 | NFLRLLIGLPSQNEL
69 | 2 | NHSRSLFSLPGNQQS

Target: T18, Hse1, P38753
T18 sequence (P38753 208-285, looked up): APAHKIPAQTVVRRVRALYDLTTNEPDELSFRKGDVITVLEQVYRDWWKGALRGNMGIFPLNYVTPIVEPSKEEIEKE
Assay: SPOT array
Conditions: median of control spots 1727

Row | SPOT intensity | Binder
70 | 113 | NPNRRAPRRPLSTQH
71 | 10 | NFLRLLIGLPSQNEL
72 | 114 | NHSRSLFSLPGNQQS

Target: T19, Boi1, P38041
T19 sequence (P38041 1-86, looked up): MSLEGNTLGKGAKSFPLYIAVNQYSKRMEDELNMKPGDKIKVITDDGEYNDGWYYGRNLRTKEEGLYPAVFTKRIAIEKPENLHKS
Assay: SPOT array
Conditions: median of control spots 1162

Row | SPOT intensity | Binder
73 | 28 | NPNRRAPRRPLSTQH
74 | 122 | NFLRLLIGLPSQNEL
75 | 7 | NHSRSLFSLPGNQQS

Target: T20, Lsb3, P43603
T20 sequence (P43603 385-451, looked up): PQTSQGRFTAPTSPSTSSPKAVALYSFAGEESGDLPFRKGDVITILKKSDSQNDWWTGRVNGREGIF
Assay: SPOT array
Conditions: median of control spots 406

Row | SPOT intensity | Binder
76 | 2 | NPNRRAPRRPLSTQH
77 | 0 | NFLRLLIGLPSQNEL
78 | 0 | NHSRSLFSLPGNQQS

Target: T21, Sla1-2, P32790
T21 sequence (P32790 60-140, looked up): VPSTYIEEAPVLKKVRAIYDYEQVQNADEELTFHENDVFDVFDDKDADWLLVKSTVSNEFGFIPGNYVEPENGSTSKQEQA
Assay: SPOT array
Conditions: median of control spots 712

Row | SPOT intensity | Binder
79 | 4 | NPNRRAPRRPLSTQH
80 | 0 | NFLRLLIGLPSQNEL
81 | 1 | NHSRSLFSLPGNQQS
